The data set addresses T1, MBP-SelU (tRNA 2-selenouridine synthase) (Escherichia coli, UniProt P33667 1-364).
T1 sequence: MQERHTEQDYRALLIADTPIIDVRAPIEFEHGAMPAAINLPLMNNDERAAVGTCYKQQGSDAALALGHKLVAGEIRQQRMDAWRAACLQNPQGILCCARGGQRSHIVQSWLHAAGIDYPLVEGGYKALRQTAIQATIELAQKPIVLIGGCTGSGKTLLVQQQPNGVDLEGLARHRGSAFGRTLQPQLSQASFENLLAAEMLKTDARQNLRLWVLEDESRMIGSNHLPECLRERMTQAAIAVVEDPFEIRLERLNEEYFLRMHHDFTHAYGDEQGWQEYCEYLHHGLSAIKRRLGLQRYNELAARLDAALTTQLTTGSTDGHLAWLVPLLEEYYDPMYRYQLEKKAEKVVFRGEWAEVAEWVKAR
The experiment in a line: MST (initial fluorescence); 10 mM Mg2+; MST: 2x assay buffer 20 mM Tricine pH 7.2, 20 mM MgCl2, 0.1% Tween-20 mixed with RNA (about 10 mM Tricine, 10 mM MgCl2, 0.05% Tween-20 final if 1:1); Cy3-RNA 50-75 nM; 30 min at room temperature, measured at 22 C. As to conditions: protein: recombinant, tags: N-terminal MBP (42 kDa, pMAL-c5x), label: 5'-Cy3, hairpin.

B1: Cy3-Se2U(34)-RNALys (structured_RNA)
RNA: GUUGACUUUUAAUCAAC
modifications: 2-selenouridine (Se2U) at nt 8 (tRNA position 34)
As for B1, the Kd (7-nt loop) worked out at 27.1 ± 1.5 µM.

B2: Cy3-geS2U(34)-RNALys (structured_RNA)
RNA: GUUGACUUUUAAUCAAC
modifications: S-geranyl-2-thiouridine (geS2U) at nt 8 (tRNA position 34)
Take B2: for the setting “7-nt loop”, the Kd stood at 3.95 ± 0.4 µM.

B3: Cy3-S2U(34)-RNALys (structured_RNA)
RNA: GUUGACUUUUAAUCAAC
modifications: 2-thiouridine (S2U) at nt 8 (tRNA position 34)
With B3, under “7-nt loop”, the dissociation constant Kd is 22.4 ± 1.6 µM.

B4: Cy3-U(34)-RNALys (structured_RNA)
RNA: GUUGACUUUUAAUCAAC
Turning to B4, the Kd (7-nt loop CUUUUAA) was determined as 25.5 ± 1.8 µM.

Broadly, the Kd is a measure of binding affinity in units of concentration.

These data come from article PMC9105526, “Escherichia coli tRNA 2-Selenouridine Synthase (SelU): Elucidation of Substrate Specificity to Understand the Role of S-Geranyl-tRNA in the Conversion of 2-Thio- into 2-Selenouridines in Bacterial tRN”.
